Molecular target: human prostate-specific membrane antigen (PSMA) (human) (UniProt Q04609)
Test: cell-based or functional assay
Conditions: for IL-2 content normalized for gene transfer efficiency, transduced PBLs on NIH3T3 feeder expressing PSMA + B7.1: scale: pg/ml divided by percentage transduced cells

Chain of human prostate-specific membrane antigen (PSMA) (human) (Q04609 whole entry): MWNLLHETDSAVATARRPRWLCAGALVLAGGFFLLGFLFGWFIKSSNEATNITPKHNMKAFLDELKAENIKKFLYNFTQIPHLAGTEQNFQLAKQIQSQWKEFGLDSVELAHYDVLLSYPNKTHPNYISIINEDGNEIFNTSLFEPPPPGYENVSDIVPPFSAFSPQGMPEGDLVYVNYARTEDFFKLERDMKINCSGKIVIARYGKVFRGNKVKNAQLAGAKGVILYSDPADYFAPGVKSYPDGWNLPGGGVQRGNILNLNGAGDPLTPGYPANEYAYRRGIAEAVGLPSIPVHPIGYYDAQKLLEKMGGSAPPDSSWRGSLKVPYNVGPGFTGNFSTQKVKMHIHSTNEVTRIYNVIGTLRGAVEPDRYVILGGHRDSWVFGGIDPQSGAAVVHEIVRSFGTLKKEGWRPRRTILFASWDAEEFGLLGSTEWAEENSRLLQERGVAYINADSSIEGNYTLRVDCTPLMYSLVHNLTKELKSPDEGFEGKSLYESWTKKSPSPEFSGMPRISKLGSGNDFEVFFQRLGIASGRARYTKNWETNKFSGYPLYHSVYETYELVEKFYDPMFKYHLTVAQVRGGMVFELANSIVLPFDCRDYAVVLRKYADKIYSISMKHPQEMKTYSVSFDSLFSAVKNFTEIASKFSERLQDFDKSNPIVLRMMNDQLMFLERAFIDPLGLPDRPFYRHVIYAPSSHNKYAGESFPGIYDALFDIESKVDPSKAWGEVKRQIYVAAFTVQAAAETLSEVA
Chain of P28 fusion receptor (J591 scFv fused to human CD28) (P10747 114-220): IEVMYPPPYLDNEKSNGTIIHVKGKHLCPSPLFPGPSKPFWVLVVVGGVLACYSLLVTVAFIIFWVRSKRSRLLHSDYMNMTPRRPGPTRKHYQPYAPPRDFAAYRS

| Substance | IL-2 concentration in supernatant (ELISA, 24 h), transduced PBLs on NIH3T3 feeder expressing PSMA [pg/mL] | IL-2 concentration in supernatant (ELISA, 24 h), transduced PBLs on NIH3T3 feeder expressing PSMA + B7.1 [pg/mL] | IL-2 content normalized for gene transfer efficiency, transduced PBLs on NIH3T3 feeder expressing PSMA + B7.1 |
| --- | --- | --- | --- |
| Pz1 fusion receptor (J591 scFv - human CD8 alpha hinge and transmembrane - intracellular domain of human TCR zeta) (from UniProt P01732 137-209) | < 50 | 164000 | 3280 |
| P28 fusion receptor (J591 scFv fused to human CD28) (from UniProt P10747 114-220) | < 50 | < 50 | – |
| Pz28 fusion receptor (Pz1 with the 41 amino acid intracellular domain of human CD28 at its C-terminus) (from UniProt P01732 137-209) | < 50 | 29700 | 958 |
